# Laboratory results: paper PMC4992955, “Pichia pastoris Fep1 is a [2Fe-2S] protein with a Zn finger that displays an unusual oxygen-dependent role in cluster binding”
# T1: MBP-Fep1 (41-192) WT (Pichia pastoris (GS115), UniProt A4VAR6 41-192)
# T1 sequence: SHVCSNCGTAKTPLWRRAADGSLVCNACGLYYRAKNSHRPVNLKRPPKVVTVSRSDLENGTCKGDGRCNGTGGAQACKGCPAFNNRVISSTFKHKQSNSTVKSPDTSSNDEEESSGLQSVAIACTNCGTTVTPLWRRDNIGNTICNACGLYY
# Assays:
# [1] = biological target: Flag-Fep1 (1–208) WT (Pichia pastoris); assay: SAXS; solution SAXS at ESRF beamline BM29, 293 K, three dilutions of each sample; as-purified and after reconstitution of the [2Fe-2S] cluster; molecular weights from ab initio calculation with ATSAS
# [2] = biological target: Flag-Fep1 (1–208) WT (Pichia pastoris); assay: SEC; analytical gel-filtration on Superdex-75 (10/300) in 25 mM MOPS pH 7, 150 mM NaCl; calibrated with conalbumin, ovalbumin, carbonic anhydrase and RNase A
# [3] = biological target: T1, MBP-Fep1 (41-192) WT; assay: EMSA; 5 uM ZnSO4, 5 uM FeCl3; 12.5 mM Hepes pH 7.9, 75 mM NaCl, 4 mM MgCl2, 1 mM EDTA, 10% glycerol, 4 mM Tris-HCl pH 7.9, 0.6 mM DTT, 1 ug poly(dI-dC)2, 5 uM ZnSO4, 5 uM FeCl3; 100-250 ng protein, 1 ng probe, 20 min at 25 C; 6% native gel at 4 C; conditions: protein: recombinant; tags: MBP fusion; label: 32P end-label (alpha-32P); 5' overhangs: 4 nt on S3, 3 nt on S4 as printed; 32 bp duplex
stoichiometry N [1],stoichiometry N [2],Molecule,binding result [3]
2,2,Flag-Fep1 (1–208) WT (domain or fragment),–
–,–,fetgata2/fetgata1 (FET3 promoter GATA probe) (dsDNA) DNA 1: GGCGATTGAACTGATAATTTTACTAAATAAGTGGAA DNA 2: GGATTCCACTTATTTAGTAAAATTATCAGTTCAAT,binds
